The results in this text go back to patent publication US20020025923A1 (University of California, published 2002).

To fix the notation:
B1: CD34, component of PNAd from human tonsil (ligand, UniProt P28906 32-385, looked up)
chain: SLDNNGTATPELPTQGTFSNVSTNVSYQETTTPSTLGSTSLHPVSQHGNEATTNITETTVKFTSTSVITSVYGNTNSSVQSQTSVISTVFTTPANVSTPETTLKPSLSPGNVSDLSTTSTSLATSPTKPYTSSSPILSDIKAEIKCSGIREVKLTQGICLEQNKTSSCAEFKKDRGEGLARVLCGEEQADADAGAQVCSLLLAQSEVRPQCLLLVLANRTEISSKLQLMKKHQSDLKKLGILDFTEQDVASHQSYSQKTLIALVTSGALLAVLGITGYFLMNRRSWSPTGERLGEDPYYTENGGGQGYSSGPGTSPEAQGKASVNRGAQENGTGQATSRNGHSARQHVVADTEL
modifications: native glycoprotein carrying the MECA-79 epitope

In assay [1] the target is T1, CD4/IgG chimera (entire extracellular domain of human CD4 fused to the Fc domain of human IgG1) (human, UniProt P01730 26-396).
T1 construct: extracellular domain; Control chimera; also called control CD4/IgG chimera; not shown: Fc domain of human IgG1
Briefly: precipitation of PNAd with the IgG chimera (CD34 as a named component of PNAd).

Assay [2] has as its target B1. Briefly: precipitation of PNAd with the L-selectin/IgG chimera, elution with EDTA.

On to B1, for which, in assay [1], the binding result is reported as “no binding”.

B2: L-selectin/IgG chimera (entire extracellular domain of murine L-selectin fused to the Fc domain of human IgG1) (Fc fusion, UniProt P18337 39-332, looked up)
chain: WTYHYSEKPMNWENARKFCKQNYTDLVAIQNKREIEYLENTLPKSPYYYWIGIRKIGKMWTWVGTNKTLTKEAENWGAGEPNNKKSKEDCVEIYIKRERDSGKWNDDACHKRKAALCYTASCQPGSCNGRGECVETINNHTCICDAGYYGPQCQYVVQCEPLEAPELGTMDCIHPLGNFSFQSKCAFNCSEGRELLGTAETQCGASGNWSSPEPICQVVQCEPLEAPELGTMDCIHPLGNFSFQSKCAFNCSEGRELLGTAETQCGASGNWSSPEPICQETNRSFSKIKEGDYN
notes: extracellular domain; From supernatants of transfected 293 cells, protein-A purified; also called recombinant L-selectin/IgG chimera; not shown: Fc domain of human IgG1
As to B2, the binding result in assay [2] is “binds”.
